Measurements as given in patent US20220340635A1, “FUSION PROTEIN FOR TREATMENT OF METABOLIC DISEASE” (ZHEJIANG DOER BIOLOGICS CORPORATION, priority 2019, published 2022).

Molecular target: β-klotho (KLB)
Experiment: cell-based or functional assay

Natural FGF21 (from UniProt Q9NSA1 29-209) (ligand)
FGF21 activity (EC50, nM): 0.12 nM
